According to the supplement of paper PMC11865577:

Key:
Test in all cases: pull-down binding Z-score (relative to library population); higher = stronger binding
TO-N3 (biotin conjugate) = details: RNA library: Library-2
Outline: (§1)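 Streptavidin beads bearing 100 pmol of a biotin-conjugated small molecule were incubated for 60 min at 25 °C with 1 μg of heat-folded, Cy5- or Cy3-end-labelled RNA library in phosphate/NaCl/KCl buffer. Hot SDS eluted the RNA that stayed bound after three washes, and this RNA was hybridised for 20 h at 55.5 °C to a DNA barcode microarray. Binding was expressed as a Z-score against the library mean and standard deviation, after subtraction of a beads-only signal and trimmed averaging of barcoded replicate probes.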

[1] = test system: TO-N3-2 (biotin conjugate); details: RNA library: Library-2
Outline: as §1

[2] = test system: TO-3-N3-2 (biotin conjugate); details: RNA library: Library-2
Outline: as §1

[3] = test system: TO-3-N3 (biotin conjugate); details: RNA library: Library-2
Outline: as §1

[4] = test system: G-clamp-N3 (biotin conjugate); details: RNA library: Library-1 (pre-miRNA loops + repeats)
Outline: as §1

Sequence | pull-down binding Z-score (TO-N3 (biotin conjugate)) | pull-down binding Z-score [1] | pull-down binding Z-score [2] | pull-down binding Z-score [3] | pull-down binding Z-score [4]
CUCUGGUCAGUUGGGAGUCUGAG [hsa-mir-143] | -0.0514 | 0.949 | -0.014 | -0.346 | 0.448
CUCUGGUCUAUAAUGGGUUAAAUAGUAGAG [hsa-mir-609] | -0.191 | 0.131 | 0.234 | -0.334 | 0.305
CUCUGUAGUUUUCUUAUAGUG [hsa-mir-644a] | -0.566 | -0.669 | -0.532 | -0.635 | -0.255
CUCUUGAUAGCAGACAU [hsa-mir-4775] | -0.14 | 0.291 | 0.14 | -0.326 | -0.839
CUGAAAAUACAAAAUGGAAAAUUCCAG [hsa-mir-4494] | -0.0822 | -0.365 | 0.256 | -0.0909 | -1.38
CUGAACCCGUGGGUGAGGAGUGCAG [hsa-mir-4690] | 0.515 | 0.925 | 0.0142 | 0.367 | 0.824
CUGAACUGGGCUGGGUUGAGCUGGGCUGGGCUGAGUUGAG [hsa-mir-4538] | 3.25 | 2.71 | 5.75 | 4.18 | 1.51
CUGACCCGUUGUCAGACCUGGAAAAAGGGCCGGCUGUGGGCAGGGAGG [hsa-mir-4761] | 4.2 | 3.86 | 5.16 | 4.77 | 1.11
CUGAGAGGUUUACAUUUCUC [hsa-mir-128-1] | -0.648 | -0.0343 | -0.672 | -0.664 | -1.07
CUGAGAGUGUCAUGGUGGAGCCUCCG [hsa-mir-4784] | 0.735 | 1.55 | -0.0723 | 0.121 | 0.795
CUGAGCGGCUCCAUCCCCCGGCCUGCUCAU [hsa-mir-6729] | 1.14 | 1.81 | 0.224 | 0.85 | -1.11
CUGAGCUGGGUACUGCCUGUUCAG [hsa-mir-589] | 0.518 | 0.0632 | 0.311 | 0.697 | 0.263
CUGAGGAAUUUGCUGGGAUAUGUCAG [hsa-mir-584] | 0.66 | 0.799 | 0.168 | 0.181 | 0.609
CUGAGGACAUGCAGUUUCAG [hsa-mir-7702] | -0.651 | -0.304 | -0.579 | -0.471 | 0.946
CUGAGGACUGAGGCUCACCUUG [hsa-mir-6772] | 0.412 | 0.813 | 0.0747 | -0.057 | 0.0792
CUGAGUAACUUGUGCUUAUAACUCAG [hsa-mir-5000] | 0.194 | -0.396 | 0.379 | 0.396 | 0.251
CUGAUUCAGAAAGAUCAUCGG [hsa-mir-127] | -0.346 | 0.226 | 0.0704 | -0.444 | -0.634
CUGAUUGUCAUAUGUCGUUUGUGGGAUCCG [hsa-mir-340] | -0.333 | 0.334 | -0.336 | -0.605 | -0.698
CUGCAGAACAUUGCAG [hsa-mir-4310] | -0.727 | -1.08 | -0.408 | -0.487 | 0.0291
CUGCAGAGACGAGGCCUGUAG [hsa-mir-5682] | 0.828 | 0.886 | 0.149 | 0.688 | 0.122
CUGCAGGAAAGGGAAGACCAAGGCUUGCUGUCUGUCCAGUCUGCCACCCUACCCUGU [hsa-mir-1231] | 0.788 | 1.54 | 0.108 | -0.0839 | -0.156
CUGCAGGGACUGUGACACUGAA [hsa-mir-6816] | 0.85 | 1.22 | 0.24 | -0.0339 | 1.64
CUGCAGUGAGCGAUCGGUGCUCUGGGG [hsa-mir-503] | 0.798 | 1.07 | 0.308 | 0.176 | 1.34
CUGCAGUGAGUAGGUCUGCCU [hsa-mir-4254] | 0.705 | 1.17 | 0.253 | 0.19 | -0.362
CUGCCAUUGAAAGUAAAGGCAA [hsa-mir-548ag-2] | 0.608 | 0.104 | 0.239 | 0.656 | 0.525

Sequence | pull-down binding Z-score (TO-N3 (biotin conjugate)) | pull-down binding Z-score [1] | pull-down binding Z-score [2] | pull-down binding Z-score [3] | pull-down binding Z-score [4]
CUGCCCCUCGAAUCUGCUCCACGAUUUGGGCAG [hsa-mir-4436a] | -0.337 | -0.521 | -0.181 | 0.0656 | 0.401
CUGCGGCCCUGAUGUCUCUACUCCAG [hsa-mir-4691] | 0.703 | 0.919 | 0.103 | 0.388 | -0.134
CUGCUCUCCCUGGCAGCAAG [hsa-mir-7109] | 0.283 | 0.6 | -0.0188 | -0.207 | 1.5
CUGCUGAAUCUUCAGAAAGG [hsa-mir-3142] | -0.164 | 0.135 | -0.178 | -0.432 | -0.0627
CUGCUGCCGAUUCUGCACCAG [hsa-mir-4756] | -0.301 | 0.461 | -0.46 | -0.432 | -1.02
CUGCUGCUGCUGCUGCUGCUGCUGCUGCUGCUGCUGCUGCUGCUGCUG [r(CUG)16] | 0.778 | 1.37 | -0.215 | -0.0148 | 2.5
CUGCUUUUAAAGGUAAUGGCAA [hsa-mir-548ag-1] | 0.193 | -0.0105 | -0.0835 | 0.107 | -0.0258
CUGGAGUCGCCUGAGUCAUCACUCAG [hsa-mir-3065] | 0.0597 | 0.525 | -0.276 | -0.142 | -0.66
CUGGCAUUUACGAGUCAGAGUUCUUACAGAGCUGC [hsa-mir-6514] | 0.639 | 1.48 | 0.16 | 0.163 | -1.37
CUGGCCAUCAGUGUGGGCUAAC [hsa-mir-6732] | 0.33 | 0.569 | -0.117 | -0.0637 | -0.237
CUGGCUGGUCCAGCCCCUCAGAAG [hsa-mir-6796] | 1.39 | 1.47 | 0.4 | 1.16 | -0.944
CUGGCUUCUCUGGUUCUCCAGCUUACAG [hsa-mir-1269b] | -0.0501 | 0.333 | -0.356 | -0.401 | -1.06
CUGGGAAGAGACCAUGAACAGGUUAGUCCAG [hsa-mir-4327] | 0.536 | -0.495 | -0.286 | 0.385 | -0.176
CUGGGAAGGGAGCUGUCCGGCUCCCCAG [hsa-mir-3155b] | -0.53 | -0.136 | -0.263 | -0.412 | 2.41
CUGGGAGGUGUGAUAUCGUGGUUCCUGG [hsa-mir-3689c] | 1.13 | 0.744 | 0.136 | 1.02 | 0.718
CUGGGAGGUGUGAUCCCGUGCUUCCUGG [hsa-mir-3689b] | -0.713 | 0.409 | -0.408 | -0.788 | -0.593
CUGGGAGGUGUGAUCCUGUGCUUCCUGG [hsa-mir-3689a] | 0.863 | 1.15 | 0.507 | 0.678 | -0.339
CUGGGGACUGUGUGGACUGGUAUCACCCAG [hsa-mir-2278] | 0.225 | 0.585 | -0.298 | -0.242 | 0.134
CUGGGGAGCCGGACAGCUCCCUUCCCAG [hsa-mir-3155a] | 0.7 | -0.0145 | -0.168 | 0.918 | 0.802
CUGGGGGAAGGCUCCAGACCCCAGCCU [hsa-mir-4267] | 1.19 | 1.37 | 0.331 | 0.793 | -0.401
CUGGGGUUGGAAUGUGACCCCA [hsa-mir-4654] | 0.541 | 0.687 | -0.171 | 0.425 | -0.709
CUGGGUCCUCUGUGCAGGGUCUUACCCAG [hsa-mir-7850] | -0.253 | 0.337 | -0.415 | -0.3 | -0.833
CUGGGUGGGACACUCAG [hsa-mir-4692] | 0.91 | 0.0278 | 0.311 | 1.24 | -0.443
CUGGGUUCGGCUGCUACCCCAAA [hsa-mir-6768] | 0.563 | 0.742 | 0.195 | 0.179 | -1.38
CUGGGUUCUUAGAGGCCUAAUCCUCUACAAACUCAGUUU [hsa-mir-4305] | 0.144 | 0.546 | -0.258 | -0.124 | -1.01

Sequence | pull-down binding Z-score (TO-N3 (biotin conjugate)) | pull-down binding Z-score [1] | pull-down binding Z-score [2] | pull-down binding Z-score [3] | pull-down binding Z-score [4]
CUGGUAGUAUAAAACCCAG [hsa-mir-934] | -0.151 | -0.468 | -0.114 | -0.0745 | 0.805
CUGGUGUUCUCACGCAAAGUGGCCAGGGUGUGGGAGACUAGA [hsa-mir-7161] | 1.14 | 1.34 | 0.556 | 0.688 | 2.32
CUGUAUGUCCUAACAGUGCUUGUAG [hsa-mir-4794] | 0.0771 | 0.46 | -0.0698 | -0.28 | -0.4
CUGUCCCCUGCCACUGGGUGACC [hsa-mir-7114] | 0.471 | 0.894 | 0.144 | 0.262 | -0.449
CUGUCCUGGACUGGGGUCAGACUGUGCCCCGAGGAGAAGCAG [hsa-mir-922] | 0.794 | 1.47 | -0.166 | -0.2 | 0.368
CUGUCUGUUGUAUAAAAGAAAAGAUCG [hsa-mir-517a] | 0.594 | 1 | 0.743 | 0.157 | -0.46
CUGUCUGUUGUCUAAGAAAAGAUCG [hsa-mir-517c_517b] | -0.0242 | 0.202 | 0.294 | -0.481 | 0.565
CUGUGAAUCCAAGAUCCACA [hsa-mir-4527] | -0.39 | -0.241 | -0.489 | -0.439 | -1.57
CUGUGACGUGCUCCAUCACCGGGCAG [hsa-mir-3714] | -0.0254 | 0.847 | -0.391 | -0.37 | 0.138
CUGUGAGGACAUCCAGGGUCACAG [hsa-mir-125a] | 0.903 | 0.969 | 0.169 | 0.423 | 3.76
CUGUGAUAACAACUCAG [hsa-mir-4705] | 0.29 | -0.508 | -0.23 | 0.564 | -1.06
CUGUGCAGAACAUCCGCUCACCUGUACAG [hsa-mir-214] | 0.0753 | 0.171 | -0.43 | 0.0427 | 0.104
CUGUGCAGGGCCAACUGUGCACAC [hsa-mir-3681] | 1.15 | 1.14 | 0.227 | 0.827 | 0.785
CUGUGCUGUCUCUGAGCACCG [hsa-mir-6827] | 0.322 | 0.586 | -0.348 | 0.0475 | 0.0113
CUGUGGCCGGUCCCAG [hsa-mir-4656] | 1.45 | 0.902 | -0.0683 | 1.39 | -0.405
CUGUGGUCUAACCUUUCCCAUCU [hsa-mir-6828] | 0.169 | 0.334 | 0.125 | -0.163 | -1.45
CUGUGGUGGCUGCUCAUGCACCACGG [hsa-mir-105-1] | -1.05 | -0.558 | -0.574 | -0.868 | 1.44
CUGUGGUGGCUGCUUAUGCACCACGG [hsa-mir-105-2] | 0.363 | -0.626 | -0.102 | 0.62 | 1.15
CUGUGGUUUGCUGGCUGCCUCAG [hsa-mir-6736] | 0.467 | 0.776 | -0.353 | 0.2 | -0.566
CUGUGUGAGGACUAGAGGCGG [hsa-mir-4523] | 0.511 | 1.05 | 0.44 | 0.0476 | 1.39
CUGUUCAGGACAAUGCCGUUGUACA [hsa-mir-199a-2] | 0.16 | 0.838 | -0.27 | -0.355 | 0.637
CUGUUCAGGACUCCCAAAUUGUACAG [hsa-mir-199b] | 1 | 0.347 | 0.385 | 1.12 | -0.893
CUGUUCAGGAGGCUCUCAAUGUGUACA [hsa-mir-199a-1] | 0.947 | 0.656 | 0.404 | 0.518 | -0.113
CUGUUGAAAGAAAAG [hsa-mir-526a-2] | 1.01 | 0.598 | 0.511 | 0.496 | -0.371
CUGUUGUGCCUAAUUCAGAG [hsa-mir-296] | 0.0489 | 0.492 | 0.0218 | -0.165 | -0.279
